Results: patent US20130323264A1

Molecular target: monoclonal antibody against the N-terminal FERM domain of moesin
Experiment: cell-based or functional assay

CD62P FD (Mnx), platelet activation induced by anti-moesin N-terminal domain antibody, inhibitor N-terminal FERM domain: 5.79 FD (Mnx)
CD63 FD (Mnx), platelet activation induced by anti-moesin N-terminal domain antibody, inhibitor N-terminal FERM domain: 6.3 FD (Mnx)
PAIR, platelet aggregation induced by anti-moesin N-terminal domain antibody (2 µg/mL), inhibitor N-terminal domain (0.2 mM): 90.2%
PAR (%), platelet aggregation induced by anti-moesin N-terminal domain antibody (2 µg/mL), inhibitor N-terminal domain (0.2 mM): 6.03%
Substance: N-terminal FERM domain of human moesin protein (from UniProt P26038 1-297)
